Each sequence was assayed on K4 kissing-loop RNA reporter (assay: apparent KD of K4 kissing-loop reporter; higher = weaker reporter binding). Details: Eterna round: R107; input ligand: arginine 13.2 mM.
Experimental: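 RNA-MaP round R107: designed RNA switches with theophylline, tryptophan, arginine or FMN aptamers are transcribed on-chip within common flanks. They are titrated with a labelled K4 kissing-loop RNA reporter in RNA-MaP buffer (100 mM Tris pH 7.5, 80 mM KCl, 4 mM MgCl2), without ligand or with the indicated ligand. Median apparent KD per design.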
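Also: bound reporter read as fluorescence of individual clusters on recovered sequencing chips by microscopy, with normalized cluster intensities fitted with a binding model.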

Sequence	apparent KD of K4 kissing-loop reporter [nM]
AAUUAAUACAGAAGGAGCGUGAAAUUAUCUAUUUUUUUUUUAGCUAGUGAUGUUAGCAUUUCACAGGUAGGUCGCUGUAUAUUUA [JR_SSArginiB_Sub009]	142
CGCGUGGGUUUGAGAGGGUUUGUGCGAAGUGAGGAUAUUUAGGGAGAAAGAAGGCACUAUAAAAUAUAGUGAUGUUAUAUAAGGG [SSFMNA.K]	226
AAAAUUGCGGUCGAAUUAACUUCUUGCAUACGAGGACCGGUACGGCCGCCACUCGAGUCAAGUGAUGUUUGAUAAUCUAUUAUUA [JR_ExcTryptoA_Sub011]	258
UGGGUGUAGUGAUGUUAUAUAGAGAGUGAUACCAGCGUAGAGAGAUGCCCUUGGCAGCAUAGAAGAGUAUCAUUGGAGGAGGAGG [ExTheophyl.Az]	743
CGCGCUGGUUGAGAGGUUGGCGCGAAUGAUACCAGUAUAUAAGAAUACCCUUGGCAGCAUAAGAAAGAUAUAGUGAUGUUGUAUA [SSTheophA.H]	344
UUCUAGCCGAAAGGCUAGUCGGCUUCAGAUACCAGUCGCGAAAGCGACCCUUGGCAGCUGUGUAGUGAUGUUGCAAAGAAAGCCG	435
ACAUGAGUGAUGUUCAUGUGGAGCAGGGUACGAGGACCGGUACGGCCGCCACUCGAGAGUUAUGACGAGUUAAUGGCAACGAUGU [KL-Tryp-A8 #analogue]	90.2
UUGCAAAAGUCGGCCGCCACUCCGGGCCCUAUAAAUGGGCGCAGUGAUGUUGCGGCUAGGCCUCUGAGGACCGGGACUUUGUAGC [Aenonlebe]	103
UGACUGGACUGAAGGAGCGAGCGAGACAAAGUCUCGAAAUCCUAGUGAUGUUAGGAAAUAACUCAGGUAGGUCGCAGUCUAGUCU [ArgBS 9 #SwitchBubble #StaticStem]	152
GUGGUACAGGCGGCCGCCACUAGUGAUGUUAGUGAUAGAAGAUAUAGUAUAUAUCGGCAUUUAGUUAGGACCGGGCCUGGUGGUG [wwwrcmullin]	316
CGGCUCAAUCCUAGUAUUAAGAGGGAGUUGCGAGGACCGGUACGGCCGCCACUCGAAGUAGUUUGGCCAGUGAUGUUGGUCUUAC [Mabeleon]	194
AAGUGAUGUUGUAGUGAUGUUGUGAUGUUGCAGGAUAUAUAGUGAUGUAGAAGGGUAAGUACUUAUUUUUUUUUUGAGUUAUGUU [crrczrmullin]	33
UCGUCCGGAUUACUCGUGGUCAUGGUCGAUACCAGUAGAUUAAUCUACCCUUGGCAGCGACAUGAGUGAUGUUCAUGUGCAAUGA [KL-XTheo-A6 #analogue]	341
GGGAGUAGUGCGGCCGCCACUGAGAAAGAAGAAGAAUAUAGUGAUGUUAUAUAGGAAAGGAAGAACAGGACCGGGCAUUAGAUUU [SSTRyptB.F]	220
AGGCGACGCAAAGGAUAUCACGGUUUUCUAGUGAUGUUAGUCAAGACCGACCGAGAAAUCAGUGUUUGAGAAGGUUGAACGUCGC [theeternabot_sameState_KL_FMN_B_46]	682
AAGCAGUCACGCGAAGCCAUCGAAGAUGGUCGAGGACCGGUACGGCCGCCACUCGGAGUGAUGUUCCGAAGACUGCAAAAUAAAA	270
AAGCAGUCACUCGAAUCCAUCGAAGAUGGACGAGGACCGGUACGGCCGCCACUCGGAGUGAUGUUCCGAAGACUGCAAAAUAAAA	246

Sequence	apparent KD of K4 kissing-loop reporter [nM]
ACCUGUGACUGAAGGAGCGUCUACUCCAGAGGAUGGAGUGAUGUUCCACUUUAAUGGAGUGGACAGGUAGGUCGCAGUCAUAGGA [Arg B SS t6]	94.5
CCUUGGGCACGCCCACUAGGAAGCUAGUCUAAGGAUAUCGACUGGACGAGAAGGUAGACGGACCCGAGUGAUGUUCGGACAUAGG [theeternabot_sameState_KL_FMN_A_1]	260
UCGGACCCUGGAGGAUAUGAGUCGAGUGAUGUUCGGCGGUCCAUGCCGGUGCGGCGUUAUGCCCUUUUAGAAGGCCAGGGUCCGA [#2 Exclusion - FMN B Attempt #11 (HarryS)]	159
GGUAGCGCUAGAGAUACCAGUCAUAUCGCUCUGGAGUGAUGUUCCGGAACGUGCGGAGAAGACCCUUGGCAGCUCAUGACGGUGU [Exclusion Theophylline B GF 4]	194
UAUUGAUUGUCAGGAUAUCGUAAACGAGUGAUGUUCGUAUAUUGACGAUAGUCAAUUCUAUCUGAACGAGAAGGGACAUUAUUUA [JR_SSFMNB_Sub009]	301
AUUUUUUACAGAAGGAGCGUGUUUUUAUAAUCAUUUAUCUUAGCGAGUGAUGUUCGCUUUACACAGGUAGGUCGCUGUUUAUUUA [JR_Nu_ExcArginiB_Sub028]	130
UGUGCUGUGUACUGUAAUGUUAUGCGGGAUACCAGAGUCUUUUUAUUCCCUUGGCAGCUUGAGUGAUGUUUGAUGCUGUUCUUGU [kiokmullin]	301
AACUGCCAAGGAACAUUGUAAGAAGGUGAUACCAGCAUCGAAAGAUGCCCUUGGCAGCACCAACUUGCAGUGAUGUUGCAAGUAA [Design5]	156
GGGACGCUAGCUCGAAUGUAGUGAUUUGAUACCAGCCUGUCACUUGGCCCUUGGCAGCAAAGCAGAGUGAUGUUCUGACCAACCU [theeternabot_sameState_KL_Theo_A_47]	298
GGUGCUGUCUGUGCCGCCUUCCUCGUUCCUCGAGGACCGGUACGGCCGCCACUCGAGUGAUGUUUGGGUAGCGAUCCCUGCUAGC [Bdazzled - #15 Exc. Tryptophan A]	737
UGUGUUUACCUGACCCAGUGAUGUUGGGAAGGAGCGUGCGAAAGCACAGGUAGGUCGCUCAACCUAAAGUCAGGUGAGCACUAAA [#SwitchBubble 9 #K4Early]	277
CUCGAGUGAUGUUCGUUUAUUUAUACAGAUACCAGUGAAUUUUAACACCCUUGGCAGCUGGUUGUAUCUUUGUUUUUUACACAAG [JR_Nu_ExcTheophyA_Sub024]	297
UGUGUUUACCUGACUCAGUGAUGUUGAGAAGGAGCGUGAGAAAGCACAGGUAGGUCGCUCAACCUAAAUUCAGGUGAGCACUAAA	274
GACGGGCAGUGAUGUUGCCGGUCUCUUGGACGAGGACCGGUACGGCCGCCACUCGAUCUGAUGCGGGAAUUGCAUCUUUUAAUAA [Raorbirabe]	115
GCUACCUAUGCAGGAUAUGGUAUUACGAGUGAUGUUCGAGGCAUAUAGAGUGAUGUUCUAUAUCCACCAGAAGGGCAUAGGUAGC	148
GUAGCACUCGGUAGUGAUGUUAUCGAGGACAAGGAUAUCAUCUCAAUGAGAAGGUGUCCUUGAUAACAGCUACGGGAAUAUCCCA [Omei KL FMN A Exc D v4]	117

Same assay, conditions: Eterna round: R107; input ligand: none

Sequence	apparent KD of K4 kissing-loop reporter [nM]
CCAUUCUGUUACGAUACCAGUCAAAGAUAUUUGAUCAAUACCCUCGCCGAGUGAUGUUCGGACCCUUGGCAGCGUCUGGGACAGG [fdxxvmullin]	558
UGACUGGAUUGAAGGAGCGCUAAACUCCUAGUGAUGUUAGGGACACAAGACAAAGUCUUGAGGCAGGUAGGUCGCAAUCUAGUCU [FiskerMod 5 - Jieux - Same State - Arginine B]	288
UUAGUACAUAGAGAUACCAGCCAUCGAAGUGAUGUUUCGAGAAAUAAUGAUGUUGGUAUAGGCCCUUGGCAGCUCUAUGUACAUU [AK1 Exc Theophylline B]	104
CUUGAUCGAGGAAGGAGCGGGCCGUCAUUGAGCGCAGUGAUGUUGCGGUCGACUAGUCGAGCCCAGGUAGGUCGCCUGGAGUAAG [Xeveis]	173
GGACAAGUUUCCGAUACCAGCCUUUAUGCUGGACUAGCUUGAUCAGUGGCUAGUGAUGUUGGCCCUUGGCAGCGGGACUCUUCGG [theeternabot_exclusion_KL_Theo_B_10]	217
AAUGUACAGGGAAGGAGCGUCGUCCAGUGAUGUUGGAGUUAAAUACCAGUGAUGUUGGUUAGACAGGUAGGUCGCCCUAAAGUGC [Exclusion Arginine B Gf 3]	92
AGGUUUUGAUUAGGAUAUGCACUGACGACGAGAAUAUAGUGAUGUUAUAUAAUAGGAAUUAGUAGAGUAGAAGGGAUUGAGGUUU [SSFMNB.W]	277
ACUACGAAGACGGCCGCCACUGAUAUUCGUAGAUCCAUCAUUACAUGAGUGAUGUUCAUGUAUAUCAGGACCGGGUCAAGAUGGU [KL-XTryp-B17 #analogue]	164
UUGUUUCCGACGGCCGCCACUGGUUUCUUUGUUGUAGUGAUGUUGCGGUGGAAUGAUAGCGUUAACAGGACCGGGUCGGUGAGAC [theeternabot_sameState_KL_Trp_B_42]	774
AUGGGUUUGGGAGGAUAUCCUUCCCACGUCGAAGUACCGUGCUUGAUGGAGUGAUGUUCGAUCAGAGGAGAAGGCCCGGAUUUAU [Same State FMN B GF21]	845
AGACCACAAAGUGGUCAGUGUUCGCUCCGGCGAGGACCGGUACGGCCGCCACUCGCGAGUGAUGUUCGCGAGCGGAGCGAACACA [Omei KL Tryp A Exc A v2]	99.9
AAUUAAUACAGAAGGAGCGUGAAAUUAUCUAUUUUUUUUUUAGCUAGUGAUGUUAGCAUUUCACAGGUAGGUCGCUGUAUAUUUA [JR_SSArginiB_Sub009]	166
CGCGUGGGUUUGAGAGGGUUUGUGCGAAGUGAGGAUAUUUAGGGAGAAAGAAGGCACUAUAAAAUAUAGUGAUGUUAUAUAAGGG [SSFMNA.K]	275
AAAAUUGCGGUCGAAUUAACUUCUUGCAUACGAGGACCGGUACGGCCGCCACUCGAGUCAAGUGAUGUUUGAUAAUCUAUUAUUA [JR_ExcTryptoA_Sub011]	279
UGGGUGUAGUGAUGUUAUAUAGAGAGUGAUACCAGCGUAGAGAGAUGCCCUUGGCAGCAUAGAAGAGUAUCAUUGGAGGAGGAGG [ExTheophyl.Az]	883
CGCGCUGGUUGAGAGGUUGGCGCGAAUGAUACCAGUAUAUAAGAAUACCCUUGGCAGCAUAAGAAAGAUAUAGUGAUGUUGUAUA [SSTheophA.H]	404
UUCUAGCCGAAAGGCUAGUCGGCUUCAGAUACCAGUCGCGAAAGCGACCCUUGGCAGCUGUGUAGUGAUGUUGCAAAGAAAGCCG	618
ACAUGAGUGAUGUUCAUGUGGAGCAGGGUACGAGGACCGGUACGGCCGCCACUCGAGAGUUAUGACGAGUUAAUGGCAACGAUGU [KL-Tryp-A8 #analogue]	98.8
UUGCAAAAGUCGGCCGCCACUCCGGGCCCUAUAAAUGGGCGCAGUGAUGUUGCGGCUAGGCCUCUGAGGACCGGGACUUUGUAGC [Aenonlebe]	142
UGACUGGACUGAAGGAGCGAGCGAGACAAAGUCUCGAAAUCCUAGUGAUGUUAGGAAAUAACUCAGGUAGGUCGCAGUCUAGUCU [ArgBS 9 #SwitchBubble #StaticStem]	175
GUGGUACAGGCGGCCGCCACUAGUGAUGUUAGUGAUAGAAGAUAUAGUAUAUAUCGGCAUUUAGUUAGGACCGGGCCUGGUGGUG [wwwrcmullin]	360
CGGCUCAAUCCUAGUAUUAAGAGGGAGUUGCGAGGACCGGUACGGCCGCCACUCGAAGUAGUUUGGCCAGUGAUGUUGGUCUUAC [Mabeleon]	210

Source: the supplement of paper PMC9170038
